From paper PMC7145319 (2019)

Molecular target: T1, MOG35-55 peptide on I-Ab (mouse)
T1 peptide: GWYRSPFSRVV
Assay: activation reporter or marker

B1: EAE2-CD4 (TCR)
alpha TRAV12-1 TRAJ23 CDR3: CALRNYNQGKLIF
beta TRBV16 TRBJ1-4 CDR3: CASSLDQGWDERLFF
B1: recognises.

B2: EAE3-CD4 (TCR)
alpha TRAV14D-1 TRAJ43 CDR3: CAASGANNNNAPRF
beta TRBV3 TRBJ2-5 CDR3: CASSLEGHQDTQYF
B2: recognises.
